# Measurements from patent US20220323445A1, “REDUCING IMMUNOGENICITY TO PEGLOTICASE” (Horizon Therapeutics Ireland DAC, priority 2020, published 2022).
# B1: pegloticase (protein)
# chain: TYKKNDEVEFVRTGYGKDMIKVLHIQRDGKYHSIKEVATTVQLTLSSKKDYLHGDNSDVIPTDTIKNTVNVLAKFKGIKSIETFAVTICEHFLSSFKHVIRAQVYVEEVPWKRFEKNGVKHVHAFIYTPTGTHFCEVEQIRNGPPVIHSGIKDLKVLKTTQSGFEGFIKDQFTTLPEVKDRCFATQVYCKWRYHQGRDVDFEATWDTVRSIVLQKFAGPYDKGEYSPSVQKTLYDIQVLTLGQVPEIEDMEISLPNIHYLNIDMSKMGLINKEEVLLPLDNPYGKITGTVKRKLSSRL
# modifications: monomethoxy PEG conjugated; Krystexxa Sequence
# notes: covalent conjugate of uricase produced by a genetically modified strain of Escherichia coli and monomethoxypoly (ethylene glycol)
# Tested on: serum uric acid (sUA)
# Assay: Serum uric acid (sUA) levels and sUA responders, open-label study of pegloticase with MTX (NCT03635957)
# Format: in vivo, human
# Method: The primary objective is to estimate the response rate during Month 6 (Weeks 20, 22, and 24), as measured by the sustained normalization of serum uric acid (SUA) to <6 mg/dL for at least 80% of the time during Month 6 in subjects receiving KXX with MTX.
# The primary efficacy outcome endpoint is the sustained normalization of SUA to <6 mg/dL for at least 80% of the time during month 6 (weeks 20, 22, and 24) in subjects receiving KXX with MTX. This is slightly below the urate solubility threshold and this threshold has been the accepted standard for nearly all modern gout trials. Participants who achieve this endpoint were classified as “responders.” Serum uric acid (SUA) responders may also be defined as participants achieving and maintaining SUA <6 mg/dL for at least 80% of the time during Month 6 (Weeks 20, 22, and 24).
# Blood samples may be collected prior to each pegloticase infusion for measurement of SUA levels using the Beckman Coulter AU System Uric Acid procedure. Participants were declared “non-responders” if there were SUA measures >6 mg/dL at 2 consecutive study visits beginning with the week 2 visit. […] If the SUA goal is not maintained before or at the 12-week mark, it was assumed that the participant had developed clinically relevant anti-pegloticase antibody and they received no further infusions. This assumption and subsequent discontinuation of pegloticase was consistent with the protocol of large phase III randomized controlled trials and the product label. A formal stopping rule was 2 occasions of SUA levels of greater than 6 mg/dL.
# Clinical Chemistry—Blood samples were collected prior to each pegloticase infusion for measurement of SUA levels (primary efficacy parameter) using the Beckman Coulter AU System Uric Acid procedure. In this procedure uric acid is converted to hydrogen peroxide. Hydrogen peroxide reacts with reagent to produce a chromophore which is read bichromatically at 660/800 nm. The amount of dye formed is proportional to the uric acid concentration in the sample.
# Serum samples for measurement of SUA levels were collected at the Screening Visit, the Week −4 Visit (prior to the first dose of MTX), and the Week −2 Visit during the MTX Run-in Period; within 48 hours prior to each pegloticase infusion and after the end of each pegloticase infusion prior to discharge from the site during the Pegloticase+IMM Period; at the non-infusion Week 52/End of Study/Early Termination Visits and at the Post Treatment 3 and 6 Month Follow-up Visits. Additional serum samples for SUA levels were collected at optional non-infusion (Frequent Sampling) Visits at Weeks 1 and 7. […] Subjects with SUA level >6 mg/dL at 2 consecutive visits beginning at Week 2 visit discontinued treatment, completed the End of Pegloticase Infusion Visit procedures within 2 weeks and continued the subject visits according to the protocol (without treatment).
# Efficacy analyses were performed using the modified intention-to-treat (mITT) population, defined as all enrolled subjects who received ≥1 dose of pegloticase. The proportion of Month 6 responders was summarized, along with a 95% confidence interval for the proportion. The proportion of Month 3 and overall (Months 3 and 6 combined) responders was analyzed similarly.
# A subject was declared a non-responder if the subject had SUA level >6 mg/dL at 2 consecutive study visits beginning with the Week 2 Visit. In addition, a subject who withdraws from study treatment for any reason after the first dose of pegloticase in the KXX+MTX Period and prior to Month 6 (for the primary endpoint) or Month 3 (for the secondary endpoint) was considered a non-responder if SUA values were not collected at the planned time points.
# Patients were administered oral MTX (15 mg/week) and folate (1 mg/day) 4 weeks prior to the first pegloticase infusion (Day 1) and throughout the pegloticase treatment period. […]
# [1] = Day 1 - Post-Infusion, Month 6 sUA Non-Responders
# [2] = Day 1 - Post-Infusion, Month 6 sUA Responders
# [3] = Day 1 - Post-Infusion, mITT, n=11
# [4] = Early Termination Visit, Month 6 sUA Non-Responders
# [5] = Early Termination Visit, mITT, n=3
# [6] = End of Pegloticase Infusions Visit, Month 6 sUA Responders
# [7] = End of Pegloticase Infusions Visit, mITT, n=2
# [8] = Week 1, Month 6 sUA Non-Responders
# [9] = Week 2 - Post-Infusion, Month 6 sUA Non-Responders
# [10] = Week 2 - Post-Infusion, Month 6 sUA Responders
# [11] = Week 2 - Post-Infusion, mITT, n=14
molecule,measurement,setting,value
B1,"sUA < 6 mg/dL, %",[1],(100%)
same,"sUA Change from Baseline, Mean",[1],-6.60 mg/dL
same,"sUA Change from Baseline, Median",[1],-7.20 mg/dL
same,"sUA Observed, Mean",[1],2.13 mg/dL
same,"sUA Observed, Median",[1],1.20 mg/dL
same,"sUA < 6 mg/dL, %",[2],(100%)
same,"sUA Change from Baseline, Mean",[2],-7.55 mg/dL
same,"sUA Change from Baseline, Median",[2],-7.50 mg/dL
same,"sUA Observed, Mean",[2],0.83 mg/dL
same,"sUA Observed, Median",[2],0.30 mg/dL
same,"sUA < 6 mg/dL, n (%)",[3],11 (100%)
same,"sUA Change from Baseline, Mean (SD)",[3],−7.29 (2.254) mg/dL
same,"sUA Change from Baseline, Median",[3],-7.30 mg/dL
same,"sUA Observed, Mean (SD)",[3],1.18 (1.417) mg/dL
same,"sUA Observed, Median",[3],0.30 mg/dL
same,"sUA Change from Baseline, Mean",[4],-0.57 mg/dL
same,"sUA Change from Baseline, Median",[4],-0.20 mg/dL
same,"sUA Observed, Mean",[4],8.17 mg/dL
same,"sUA Observed, Median",[4],8.20 mg/dL
same,"sUA < 6 mg/dL, n (%)",[5],0%
same,"sUA Change from Baseline, Mean (SD)",[5],−0.57 (0.635) mg/dL
same,"sUA Change from Baseline, Median",[5],-0.20 mg/dL
same,"sUA Observed, Mean (SD)",[5],8.17 (0.058) mg/dL
same,"sUA Observed, Median",[5],8.20 mg/dL
same,"sUA < 6 mg/dL, %",[6],(100%)
same,"sUA Change from Baseline, Mean",[6],-8.50 mg/dL
same,"sUA Change from Baseline, Median",[6],-8.50 mg/dL
same,"sUA Observed, Mean",[6],0.30 mg/dL
same,"sUA Observed, Median",[6],0.30 mg/dL
same,"sUA < 6 mg/dL, n (%)",[7],2 (100%)
same,"sUA Change from Baseline, Mean (SD)",[7],−8.50 (1.556) mg/dL
same,"sUA Change from Baseline, Median",[7],-8.50 mg/dL
same,"sUA Observed, Mean (SD)",[7],0.30 (0.000) mg/dL
same,"sUA Observed, Median",[7],0.30 mg/dL
same,"sUA < 6 mg/dL, %",[8],(100%)
same,"sUA Change from Baseline, Mean",[8],-8.10 mg/dL
same,"sUA Change from Baseline, Median",[8],-8.10 mg/dL
same,"sUA Observed, Mean",[8],0.30 mg/dL
same,"sUA Observed, Median",[8],0.30 mg/dL
same,"sUA < 6 mg/dL, %","Week 1, Month 6 sUA Responders",(100%)
same,"sUA Change from Baseline, Mean","Week 1, Month 6 sUA Responders",-6.88 mg/dL
same,"sUA Change from Baseline, Median","Week 1, Month 6 sUA Responders",-7.15 mg/dL
same,"sUA Observed, Mean","Week 1, Month 6 sUA Responders",0.30 mg/dL
same,"sUA Observed, Median","Week 1, Month 6 sUA Responders",0.30 mg/dL
same,"sUA < 6 mg/dL, n (%)","Week 1, mITT, n=6",6 (100%)
same,"sUA Change from Baseline, Mean (SD)","Week 1, mITT, n=6",−7.28 (1.556) mg/dL
same,"sUA Change from Baseline, Median","Week 1, mITT, n=6",-7.75 mg/dL
same,"sUA Observed, Mean (SD)","Week 1, mITT, n=6",0.30 (0.000) mg/dL
same,"sUA Observed, Median","Week 1, mITT, n=6",0.30 mg/dL
same,"sUA < 6 mg/dL, %",[9],(100%)
same,"sUA Change from Baseline, Mean",[9],-8.43 mg/dL
same,"sUA Change from Baseline, Median",[9],-8.10 mg/dL
same,"sUA Observed, Mean",[9],0.30 mg/dL
same,"sUA Observed, Median",[9],0.30 mg/dL
same,"sUA < 6 mg/dL, %",[10],(100%)
same,"sUA Change from Baseline, Mean",[10],-8.97 mg/dL
same,"sUA Change from Baseline, Median",[10],-8.80 mg/dL
same,"sUA Observed, Mean",[10],0.30 mg/dL
same,"sUA Observed, Median",[10],0.30 mg/dL
same,"sUA < 6 mg/dL, n (%)",[11],14 (100%)
same,"sUA Change from Baseline, Mean (SD)",[11],−8.86 (2.486) mg/dL
same,"sUA Change from Baseline, Median",[11],-8.70 mg/dL
same,"sUA Observed, Mean (SD)",[11],0.30 (0.000) mg/dL
same,"sUA Observed, Median",[11],0.30 mg/dL
